# Measured values reported in publication PMC5516325, “Sequence-based identification of inositol monophosphatase-like histidinol-phosphate phosphatases (HisN) in Corynebacterium glutamicum, Actinobacteria, and beyond” (BMC Microbiology, 2017).
# B1: HisN (HisNCg) (Corynebacterium glutamicum ATCC 13032) (protein)
# chain: MSKYADDLALALELAELADSITLDRFEASDLEVSSKPDMTPVSDADLATEEALREKIATARPADSILGEEFGGDVEFSGRQWIIDPIDGTKNYVRGVPVWATLIALLDNGKPVAGVISAPALARRWWASEGAGAWRTFNGSSPRKLSVSQVSKLDDASLSFSSLSGWAERDLRDQFVSLTDTTWRLRGYGDFFSYCLVAEGAVDIAAEPEVSLWDLAPLSILVTEAGGKFTSLAGVDGPHGGDAVATNGILHDETLDRLK
# notes: tag-free (C-terminal intein tag self-cleaved, IMPACT system, NEB), expressed in E. coli ER2566
# Legend:
# Format in all cases: biochemical, Corynebacterium glutamicum
# Cg0911 [1] = test system: T1, Cg0911; test: phosphate release from HolP, malachite green; activation; conditions: activator (also reaction product); 500 μM HolP, 5 mM MgSO4, 1 M triethanolamine, pH 7.35, 30 °C; read-out: Half maximal stimulation
# T1 construct: tag-free (C-terminal intein tag self-cleaved, IMPACT system), expressed in E. coli ER2566
# Cg0911 [2] = test system: T1, Cg0911; test: phosphate release, malachite green; Hill equation fit; conditions: 5 mM MgSO4, 100 mM triethanolamine, pH 7.35, 30 °C
# From the text: phosphate release, malachite green; Hill equation fit on Cg0911
# [3] = substrate: N[C@H](COP(=O)(O)O)Cc1c[nH]cn1; test: as above; conditions: 5 mM MgSO4, 100 mM triethanolamine, pH 7.35, 30 °C
# From the text: phosphate release, malachite green; Hill equation fit on HisN (HisNCg)
molecule,measurement,setting,value
N[C@H](CO)Cc1c[nH]cn1 [L-histidinol],EC50,Cg0911 [1],860 ± 60 µM
N[C@H](COP(=O)(O)O)Cc1c[nH]cn1 [L-histidinol-phosphate],Km,Cg0911 [2],638 ± 70.5 µM
B1,Km,[3],23.6 ± 1.4 µM
same,kcat,[3],1.04 ± 0.06 s⁻¹
same,kcat/Km,[3],44100 M⁻¹ s⁻¹
